# Measured values as given in patent US12357965B2, “Supramolecular filamentous assemblies for protein purification” (The Johns Hopkins University, priority 2017, dated 2025).
# Several values for one entry are separate records, joined by “and”; a condition that tells them apart may be missing. Equal values may be shown once. Where no end group is shown, it is not given here. The star is where a group is joined. Palmitoyl = CCCCCCCCCCCCCCCC(=O)*; Octanoyl = CCCCCCCC(=O)*; C12H21O = C12 acyl
# Assays:
# [1] = Critical micelle concentration (CMC) measurement with Nile Red; format: physicochemical; settings: deionized water
# Experimental: CMC Measurement. […] The stock solution of Nile Red was initially prepared by dissolving the dye in acetone at 50 μM. 10 μL stock solution was loaded into several centrifuge tubes, where the solvent evaporates under room temperature to yield the dry mass of Nile Red. Various concentrations of the peptide solutions were prepared in deionized water, and then identical volume was added into the centrifuge tubes containing dry Nile Red and aged overnight. Fluorescent spectra of Nile Red were then monitored by a Fluorolog fluorometer (Jobin Yvon, Edison, NJ) with fixed excitation wavelength at 560 nm; emission spectra were monitored 580-720 nm. The CMC of IAs is determined by a blue-shift of the emission maximum, whereas this transition occurs as the incubated peptides exceed their CMC values.
# To deeply understand the differences between single-chain and double-chain alkylated IAs with fragmented antibody binding peptides, further studies on CMC and secondary structures were conducted. The critical micelle concentration (CMC) values for various IAs were measured using Nile Red, a lipophilic dye that fluoresces depending on solvent polarity. Intensive fluorescence upon exposure to hydrophobic environments can be strongly quenched and red-shifted in aqueous media. When incubated with IAs at different concentrations in aqueous solution, Nile Red prefers to partition into the hydrophobic core offered by the self-assembled nanostructures and the CMC of IAs was determined when a blue-shift of the emission maximum occurred. […] Similarly, CMC values for C16-Helix2, Helix1-2C8, and 2C8-Helix2 can be obtained from FIG. 8B-8D.
# [2] = Circular dichroism (CD) spectroscopy of peptide secondary structure; format: physicochemical; settings: 100 μM in water at pH 7.4
# [3] = TEM imaging of self-assembled nanostructures (diameter); format: physicochemical; settings: water; for diameter of nanofibers / nanobelts (TEM): pH 7.4, aged overnight; for diameter of smallest filaments (TEM): pH 7.4, double-chain alkylated IAs
# Experimental: Self-Assembly of Immuno-Amphiphiles and TEM Imaging Immuno-amphiphiles with 1 mM concentration were pretreated with HFIP and then dissolved in 1×PBS or deionized water and aged overnight at room temperature; 10 μL of 10 fold diluted sample was spotted on a carbon film copper grid with 400 square mesh (from EMS: Electron Microscopy Sciences) and the excess was removed with filter paper to leave a thin film of sample on the grid. After letting the sample dry for 5 minutes, 10 μL of 2% uranyl acetate was added to sample grid, and the excess was removed after 30 seconds. All samples were dried for at least 3 hours before TEM imaging.
# IgG = IgG (Homo sapiens, UniProt P01857); experiment: IgG binding and precipitation by co-assembled immunofibers with 1 M ammonium sulfate (ProA column quantification); settings: mixed with IgG, 10:1 binding molecule to IgG
# Sequence of IgG (P01857 1-330 isoform P01857-1): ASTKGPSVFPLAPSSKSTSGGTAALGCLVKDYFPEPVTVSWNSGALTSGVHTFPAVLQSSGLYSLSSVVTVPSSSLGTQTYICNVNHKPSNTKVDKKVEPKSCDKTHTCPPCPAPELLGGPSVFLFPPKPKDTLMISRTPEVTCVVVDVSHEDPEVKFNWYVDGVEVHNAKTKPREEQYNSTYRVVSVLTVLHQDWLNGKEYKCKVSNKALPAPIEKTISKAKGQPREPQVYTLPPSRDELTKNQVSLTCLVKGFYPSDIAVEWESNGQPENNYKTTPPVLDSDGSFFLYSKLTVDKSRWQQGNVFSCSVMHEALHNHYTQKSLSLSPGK
# Experimental: To investigate the IgG binding and precipitation ability with the new immunofibers binding system, 100 μl of desired immunofibers solution was incubated with IgG (with a 10:1 molar ratio of C12-VVKKGG(SEQ ID NO: 9) -Z33 and IgG) for half an hour followed by adding ammonium sulfate to a final concentration of 1 M to trigger the precipitation of the immunofibers and IgG. […] After centrifuging down the precipitates and analyzing the IgG concentration in the supernatant, about 30% IgG were precipitated out from the solution. IgG concentration was quantified with a ProA column (TSKgel® Protein A-5PW, 20 μm, 35×4.6 mm) monitored at 280 nm.
# To increase the IgG binding efficiency and optimal precipitation condition in the co-assembled immunofibers binding system, several factors will continue to be optimized including the ratio of binding molecules to spacer molecules, the ratio of binding molecules to IgG, salt concentration, binding and salting time, and so on. The molar ratio of C12-VVEE (SEQ ID NO: 10) and C12-VVKKGG(SEQ ID NO: 9) -Z33 and the molar ratio of C12-VVKKGG(SEQ ID NO: 9) -Z33 were firstly studied and preliminary results were shown in FIG. 21. At a 10:2 molar ratio of C12VVKKGG(SEQ ID NO: 9) -Z33 to IgG and 1 M ammonium sulfate, 5 molar ratios of C12-VVEE (SEQ ID NO: 10) to C12-VVKKGG(SEQ ID NO: 9) -Z33 (5:1, 10:1, 25:1, 50:1, 100:1) were tested. […]
# [4] = Thioflavin T (ThT) spectroscopic assay for β-sheet; format: physicochemical; settings: 100 μM in deionized water
# Experimental: Thioflavin T (ThT) Spectroscopic Assay. A ThT stock solution was prepared in deionized water at 50 μM. […] The fluorescence intensity was then measured by a Fluorolog fluorometer (Jobin Yvon, Edison, NJ) with excitation at 440 nm (slit width 5 nm) and emission at 482 nm (slit width 10 nm).
# To further confirm the component of secondary structures in the self-assembled IAs, a fluorescent dye Thioflavin-T (ThT) with large enhancement of its fluorescence emission upon binding to β-sheet surfaces was used to examine the existence of β-sheet secondary structures in Helix1-based IAs.
substance,measurement,setting,value
"(C8H15O)2-KPNLNEEQRNAKIKSIRDD (SEQ ID NO: 7) (not fully specified (residue 1, N-terminus); printed as (C8H15O)2-KPNLNEEQRNAKIKSIRDD; also: two octanoyl chains (C8H15O)2 at N-terminal Lys, places not given here) [2C8-Helix2]",CMC,[1],5 to 10 µM
same,Main Secondary Structure (100 μM),[2],α-helix
same,diameter of nanofibers / nanobelts (TEM),[3],22.9±1.5 nm
same,diameter of smallest filaments (TEM),[3],9.3±1.3 nm
C8H15O- PNLNEEQRNAKIKSIRDD (SEQ ID NO: 5) (Octanoyl-PNLNEEQRNAKIKSIRDD) [C8-Helix2],CMC,[1],>100 µM
same,Main Secondary Structure (100 μM),[2],Random coil
"C12-VVKKGG (SEQ ID NO: 9) -Z33: binding molecule: C12 alkyl tail at N-terminus, VVKKGG spacer between the carbon chain and binding peptide Z33",precipitation after addition of ammonium sulfate (observation),IgG,no precipitation was observed
C12H21O- PNLNEEQRNAKIKSIRDD (SEQ ID NO: 5) (C12H21O-PNLNEEQRNAKIKSIRDD) [C12-Helix2],CMC,[1],2 to 5 µM
same,Main Secondary Structure (100 μM),[2],α-helix
C16H31O- PNLNEEQRNAKIKSIRDD (SEQ ID NO: 5) (Palmitoyl-PNLNEEQRNAKIKSIRDD) [C16-Helix2],CMC,[1],0.5 to 1 µM
same,Main Secondary Structure (100 μM),[2],β-sheet
same,diameter of nanofibers / nanobelts (TEM),[3],12.4±1.7 nm
FNMQQQRRFYEALHD [Helix1],Main Secondary Structure (100 μM),[2],random coil
"FNMQQQRRFYEALHDK (SEQ ID NO: 3)-C8H15O (not fully specified (residue 16); also: C-terminal C8 acyl (C8H15O), attachment not given here) [Helix1-C8]",CMC,[1],>100 µM
same,Main Secondary Structure (100 μM),[2],Random coil
FNMQQQRRFYEALHDK(SEQ ID NO: 3)-C12H21O (FNMQQQRRFYEALHDK(C12H21O); not fully specified) [Helix1-C12],CMC,[1],5 to 10 µM
same,Main Secondary Structure (100 μM),[2],β-sheet
same,diameter of nanofibers / nanobelts (TEM),[3],12.2±1.4 nm and 12.9±0.9 nm
"FNMQQQRRFYEALHDK(SEQ ID NO: 3)-C16H31O (not fully specified (residue 16); also: C-terminal C16 acyl (C16H31O), attachment not given here) [Helix1-C16]",CMC,[1],0.5 to 1 µM
same,Main Secondary Structure (100 μM),[2],β-sheet
same,diameter of nanofibers / nanobelts (TEM),[3],9.6±1.3 nm and 9.5±1.2 nm
same,ThT fluorescence emission at 482 nm compared with pure ThT solution,[4],dramatic increase of fluorescence
"FNMQQQRRFYEALHDKK(SEQ ID NO: 4)-(C8H15O)2 (not fully specified (residues 16, 17); also: two C-terminal octanoyl chains (C8H15O)2, places not given here) [Helix1-2C8]",CMC,[1],10 to 20 µM
same,Main Secondary Structure (100 μM),[2],α-helix
same,diameter of nanofibers / nanobelts (TEM),[3],10-70 nm
same,diameter of smallest filaments (TEM),[3],11.0±1.4 nm
PNLNEEQRNAKIKSIRDD [Helix2],Main Secondary Structure (100 μM),[2],random coil
